Measured values from the supplement of paper PMC11136658.

System: peptide library, one residue held at a place counted from the Y acceptor
Assay: relative phosphorylation of the sub-library (ratio to the mean residue at this position); higher = residue favoured
Method in brief: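 Purified recombinant kinases were given 50 μM ATP with γ-32P-ATP and biotinylated Tyr-centred peptide library mixtures for 90 min in 384-well plates. Peptides bound to streptavidin membranes were rinsed and quantified by phosphorimaging, and intensities were normalized per position by the sum of the 18 randomized residues (16 with the Ser/Thr-free library) and multiplied by that number. The reported values are phosphorylation relative to the mean randomized residue.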

Sequence of ITK, construct: aa352-end, human (Q08881 352-620, looked up): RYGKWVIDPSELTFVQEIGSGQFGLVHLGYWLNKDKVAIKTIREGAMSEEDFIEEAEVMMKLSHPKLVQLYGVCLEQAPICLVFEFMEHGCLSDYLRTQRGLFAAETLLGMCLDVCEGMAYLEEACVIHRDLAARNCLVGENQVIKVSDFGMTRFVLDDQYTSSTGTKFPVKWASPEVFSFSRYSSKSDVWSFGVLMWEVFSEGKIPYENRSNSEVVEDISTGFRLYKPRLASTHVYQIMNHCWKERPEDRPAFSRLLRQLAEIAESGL
Sequence of IRR, construct: aa945-end, human (P14616 945-1297, looked up): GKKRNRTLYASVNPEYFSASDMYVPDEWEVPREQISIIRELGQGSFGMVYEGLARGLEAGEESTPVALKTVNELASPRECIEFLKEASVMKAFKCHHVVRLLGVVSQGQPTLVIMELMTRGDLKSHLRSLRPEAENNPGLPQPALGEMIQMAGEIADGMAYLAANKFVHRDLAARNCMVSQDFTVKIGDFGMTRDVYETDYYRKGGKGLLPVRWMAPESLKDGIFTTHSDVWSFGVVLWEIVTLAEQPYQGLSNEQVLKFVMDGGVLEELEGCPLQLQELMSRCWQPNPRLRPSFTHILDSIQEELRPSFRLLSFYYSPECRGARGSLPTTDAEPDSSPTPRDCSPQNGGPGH
Sequence of JAK1, construct: aa866-end, human (P23458 866-1154, looked up): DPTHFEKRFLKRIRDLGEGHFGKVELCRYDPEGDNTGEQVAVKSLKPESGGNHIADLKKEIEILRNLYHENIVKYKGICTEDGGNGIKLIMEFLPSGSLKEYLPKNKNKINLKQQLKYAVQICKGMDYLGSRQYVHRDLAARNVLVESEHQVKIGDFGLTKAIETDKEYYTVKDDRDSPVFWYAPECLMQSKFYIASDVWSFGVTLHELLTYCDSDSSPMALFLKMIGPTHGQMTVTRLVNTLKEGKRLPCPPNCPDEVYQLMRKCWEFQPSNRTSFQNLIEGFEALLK

IRR, construct: aa945-end, human (from UniProt P14616)
relative phosphorylation
Conditions	at +1	at +2	at +3	at +4	at +5	at -1	at -2	at -3	at -4	at -5
A fixed	1.2	0.697	0.453	0.79	0.702	0.948	1.06	0.957	0.997	1.03
D fixed	0.718	0.923	0.342	1.35	0.583	2.42	1.56	1.39	1.41	1.13
E fixed	1.07	1.49	0.322	1.26	0.575	1.66	1.53	1.53	1.28	1.03
F fixed	1.4	1.19	1.51	1.06	2.09	0.666	0.685	0.903	0.854	0.904
G fixed	0.637	0.368	0.424	0.931	0.838	0.608	1.14	0.972	1.08	0.998
H fixed	1.85	1.07	1.37	1.24	1.21	1.08	0.901	1.13	1.07	1.09
I fixed	0.849	0.881	1.73	0.828	1.03	0.842	0.63	0.618	0.772	0.87
K fixed	0.399	0.686	0.433	0.906	0.693	0.35	0.977	0.864	1.05	1.28
L fixed	1.19	1.32	1.6	0.807	0.985	0.916	0.705	0.717	0.742	0.825
M fixed	2.18	1.44	2.06	0.975	1.06	0.75	0.803	0.779	0.853	0.84
N fixed	0.618	0.911	0.484	1.14	0.844	2.07	1.37	1.45	1.14	1.13
P fixed	0.423	0.796	0.374	0.892	1.37	1.07	1.24	0.834	0.957	0.978
Q fixed	0.998	1.02	0.546	1.04	0.867	0.911	1.18	1.24	1.19	1.12
R fixed	0.353	0.796	0.665	0.918	1.06	0.386	0.992	1.16	1.05	1.19
S fixed	0.835	0.771	0.509	0.977	0.705	0.856	1.06	1.05	0.847	0.88
T fixed	0.867	0.801	0.741	1.07	0.781	0.945	1.05	0.996	0.876	0.803
V fixed	0.906	0.945	1.43	0.85	0.723	0.757	0.651	0.647	0.776	0.806
W fixed	1.21	1.47	2.26	1.01	1.35	0.576	0.576	0.797	0.781	0.766
pThr fixed	1.57	1.06	0.323	0.922	0.584	1.66	1.23	1.27	1.2	1.07
pTyr fixed	1.06	1.64	0.393	1.12	0.513	2.83	1.35	1.26	0.928	1.02

ITK, construct: aa352-end, human (from UniProt Q08881)
relative phosphorylation
Conditions	at +1	at +2	at +3	at +4	at +5	at -1	at -2	at -3	at -4	at -5
A fixed	1.81	1.06	0.772	0.857	1.11	0.551	1.01	0.947	1.03	0.997
D fixed	0.732	0.669	0.309	0.622	0.886	0.754	1.41	1.36	1.33	1.21
E fixed	1.51	1.13	0.274	0.821	0.792	0.709	1.51	1.52	1.38	1.08
F fixed	0.572	1.07	1.85	0.763	0.705	1.81	0.627	0.793	0.672	0.935
G fixed	1.08	0.639	0.788	1.26	1.1	0.384	1.43	1.21	1.17	1.13
H fixed	0.606	0.801	2.11	0.96	0.926	0.991	0.812	1.03	1.01	1.13
I fixed	1.51	1.12	0.913	0.996	0.332	2.5	0.548	0.511	0.759	0.718
K fixed	0.337	0.697	0.722	1.34	1.39	0.291	0.703	0.694	0.953	1.06
L fixed	0.606	0.908	0.832	0.771	0.72	2.16	0.969	0.666	0.743	0.757
M fixed	1.17	0.976	1.06	1.04	1.24	1.22	0.645	0.752	0.816	0.896
N fixed	0.361	1.06	0.757	0.846	1.06	0.585	1.33	1.39	1.15	1.24
P fixed	0.172	0.791	0.868	1.08	1.49	0.48	1.43	1.27	1.15	1.07
Q fixed	1.03	0.901	0.885	1.19	1.15	0.648	1.24	1.16	1.39	1.24
R fixed	0.432	0.987	1.41	1.32	1.55	0.308	0.64	0.774	1.05	1.14
S fixed	1.4	1.22	0.997	1.07	1.14	0.489	1.28	1.31	1.05	1.01
T fixed	1.36	1.45	0.767	1.12	1.01	1.19	1.05	1.1	0.807	0.902
V fixed	2.08	1.24	1.04	1.16	0.772	1.57	0.764	0.752	0.84	0.797
W fixed	1.23	1.27	1.65	0.785	0.634	1.36	0.605	0.759	0.706	0.692
pThr fixed	2.18	2.7	0.354	0.462	0.524	1.68	1.08	0.871	1.02	0.887
pTyr fixed	1.11	3.73	0.518	0.754	0.65	1.48	1.02	1.2	1.23	2.07

JAK1, construct: aa866-end, human (from UniProt P23458)
relative phosphorylation
Conditions	at +1	at +2	at +3	at +4	at +5	at -1	at -2	at -3	at -4	at -5
A fixed	0.719	1.02	0.75	0.954	1.06	1.36	1.03	1.03	1.2	1.05
D fixed	0.171	0.329	0.239	0.618	0.655	0.907	0.905	0.919	0.963	0.916
E fixed	0.237	0.402	0.195	0.79	0.649	1.08	0.81	0.891	1.02	0.871
F fixed	2.15	0.807	1.02	1.08	1.09	1.11	0.81	1.1	1.23	1.03
G fixed	0.385	0.788	0.879	1.19	1.19	1.44	1.21	1.11	1.19	1.16
H fixed	0.87	0.545	0.714	1.05	0.906	0.847	0.915	0.905	0.788	0.931
I fixed	2.1	0.695	2.37	0.834	0.784	1.24	0.941	0.795	0.861	1.04
K fixed	0.286	1.88	0.713	1.25	1.16	0.364	0.824	0.732	0.851	1.01
L fixed	2.04	0.871	2.13	0.875	0.886	1.24	1.04	1.15	1.12	1.09
M fixed	2.06	0.911	1.35	1.11	0.897	1.17	1.03	1.09	0.983	1.07
N fixed	0.289	1.04	0.752	0.882	0.923	0.749	1.05	1.02	0.784	0.914
P fixed	0.371	1.55	0.755	0.89	1.41	1.63	1.13	1.41	1.33	1.24
Q fixed	0.699	0.893	0.494	1.03	0.852	0.661	1.06	0.845	1.09	0.953
R fixed	0.509	2.13	0.985	1.45	1.33	0.414	1.02	0.851	0.929	0.911
S fixed	0.534	1.43	0.836	1.16	1.21	0.813	1.33	1.13	0.844	0.904
T fixed	0.812	1.09	1.2	0.956	1.19	0.865	1.05	0.983	0.678	0.805
V fixed	1.8	0.832	1.67	0.887	0.838	1.35	0.931	0.957	0.922	0.953
W fixed	1.96	0.781	0.953	0.988	0.971	0.756	0.89	1.08	1.22	1.14
pThr fixed	0.349	0.342	0.188	0.413	0.485	0.849	0.695	0.704	0.872	0.823
pTyr fixed	0.608	0.384	0.271	0.735	0.608	2.64	0.751	0.934	0.929	0.925
